The series deals with FleQ (Pseudomonas aeruginosa PAO1) (UniProt G3XCV0). The series can be described thus: EMSA. (In general: Mobility shift assays separate free from complexed probe on a gel.)
Sequence of FleQ (Pseudomonas aeruginosa PAO1) (G3XCV0 whole entry): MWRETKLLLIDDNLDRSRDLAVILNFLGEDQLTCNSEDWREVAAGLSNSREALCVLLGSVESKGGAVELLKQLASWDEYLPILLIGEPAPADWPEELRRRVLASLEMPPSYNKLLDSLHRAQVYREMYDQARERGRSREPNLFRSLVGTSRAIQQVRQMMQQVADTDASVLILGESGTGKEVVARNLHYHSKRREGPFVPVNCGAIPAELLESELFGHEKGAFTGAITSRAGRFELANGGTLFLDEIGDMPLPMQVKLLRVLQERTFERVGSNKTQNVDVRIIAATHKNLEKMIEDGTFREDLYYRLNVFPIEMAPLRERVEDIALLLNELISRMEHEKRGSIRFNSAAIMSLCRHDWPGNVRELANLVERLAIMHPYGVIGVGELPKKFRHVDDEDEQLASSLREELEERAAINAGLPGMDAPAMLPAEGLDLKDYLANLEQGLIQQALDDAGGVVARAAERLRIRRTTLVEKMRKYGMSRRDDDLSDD

“GAGTTGCAGCCTTTCCTTGCCGTCAGCCATGGCGCACCTCCGGACGAGGGTACGCGCAGGGGTCTTCGAGATGGCTCATTATTCTTGTCTCCACTCTGTCAGAGGCCGTGTCTTGCGCACGGATGAGCGGATTATTGGCGGCGGATGTAAGACGCCGTTGAACGCGCGGATCGAAGATGTAAAAAGCTGTAAGGAAGTTGTTCGCCGCG (double strand) [lysP promoter (4981)]”: the binding result is “binds”.

(Values after article PMC9927353.)
